Laboratory results reported in patent publication US20090202562A1 (Biogen, published 2009).

Columns and labels:
[1] = target: T1, rat GFRalpha2 (rat, UniProt O35977 22-444); experiment: FACS on transiently transfected HEK 293 EBNA cells
T1 construct: whole, on cells; Expressed on transiently transfected HEK 293 EBNA cells
T1 sequence: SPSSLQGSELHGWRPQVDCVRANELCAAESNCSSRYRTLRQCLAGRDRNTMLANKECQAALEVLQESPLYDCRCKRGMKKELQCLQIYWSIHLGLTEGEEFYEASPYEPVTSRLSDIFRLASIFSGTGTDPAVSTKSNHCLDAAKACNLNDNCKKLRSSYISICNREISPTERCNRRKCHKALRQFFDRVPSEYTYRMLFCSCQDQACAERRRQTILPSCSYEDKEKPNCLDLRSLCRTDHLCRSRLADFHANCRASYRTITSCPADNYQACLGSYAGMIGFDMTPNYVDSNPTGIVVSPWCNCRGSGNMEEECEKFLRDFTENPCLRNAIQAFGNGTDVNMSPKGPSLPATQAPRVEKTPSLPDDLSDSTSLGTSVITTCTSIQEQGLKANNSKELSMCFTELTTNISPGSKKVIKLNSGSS
Method: (§1) HEK 293 EBNA cells were transiently transfected with an empty vector, a vector encoding rat GFRalpha1, a vector encoding rat GFRalpha2, or a vector encoding rat GFRalpha3. These cells were stained with 10 ug/ml of the anti-GFRalpha3 polyclonal antibody R11 (a rabbit polyclonal antibody generated by immunization with the peptide […] (SEQ ID NO:14), which contains a murine GFRalpha3 sequence and a heterologous GC sequence at its carboxy terminus) or with 10 ug/ml MOR02683. The vector-transfected cells shifted slightly above the unstained baseline because the HEK 293 EBNA cells endogenously expresses GFRalpha3 (FIGS. 2A and 2B). […] The lack of shift of the GFRalpha1-transfected cells and GFRalpha2-transfected cells as compared to vector-transfected cells indicated the specificity of MOR02683 for GFRalpha3 over its close family members (FIGS. 2A and 2B).

[2] = target: T2, rat GFRalpha1 (rat, UniProt Q62997 25-430); experiment: FACS on transiently transfected HEK 293 EBNA cells
T2 construct: whole, on cells; Expressed on transiently transfected HEK 293 EBNA cells
T2 sequence (looked up): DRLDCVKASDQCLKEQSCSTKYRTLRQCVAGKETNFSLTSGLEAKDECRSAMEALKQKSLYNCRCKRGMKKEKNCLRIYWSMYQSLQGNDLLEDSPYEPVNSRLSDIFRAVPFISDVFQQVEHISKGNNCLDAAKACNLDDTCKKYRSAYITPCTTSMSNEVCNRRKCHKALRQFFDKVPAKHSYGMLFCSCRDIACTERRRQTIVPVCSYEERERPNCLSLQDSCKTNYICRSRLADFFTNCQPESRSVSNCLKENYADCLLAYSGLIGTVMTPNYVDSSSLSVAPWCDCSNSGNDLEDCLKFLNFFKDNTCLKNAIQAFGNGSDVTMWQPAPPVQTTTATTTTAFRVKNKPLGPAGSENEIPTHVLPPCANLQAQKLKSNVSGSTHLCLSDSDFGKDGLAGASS
Method: as §1

[3] = target: murine GFRalpha3-Ig (murine); experiment: inhibition of Neublastin-GFRalpha3-Ret ternary complex formation: MOR02683 preincubated with 1 ug/ml murine GFRalpha3-Ig, 50 ng/ml rat Neublastin and rat Ret-AP conditioned media; capture on an anti-human Fc plate; AP chemiluminescence
Method: MOR02683 was preincubated with 1 ug/ml murine GFRalpha3-Ig ([…] […] […] […] […] […] […] […] […] […] […] […]; SEQ ID NO:19) and 50 ng/ml rat Neublastin (113 amino acid form; […] […] TACGCLG; SEQ ID NO:20) in rat Ret-alkaline phosphatase ([…] […] […] […] […] […] […] […] […] […] […] […] […] […] […] […] […] […] […] […] […] […]; SEQ ID NO:21) conditioned media for an hour before being added to the coated plate for another hour. The alkaline phosphatase (AP) was visualized with a chemiluminescent substrate and the plate was read on a luminometer.

[4] = target: T3, rat GFRalpha3 (rat, UniProt O35118 29-370 (mouse entry)); experiment: FACS
T3 construct: Expressed on transiently transfected HEK 293 EBNA cells; also called RetL3
T3 chain: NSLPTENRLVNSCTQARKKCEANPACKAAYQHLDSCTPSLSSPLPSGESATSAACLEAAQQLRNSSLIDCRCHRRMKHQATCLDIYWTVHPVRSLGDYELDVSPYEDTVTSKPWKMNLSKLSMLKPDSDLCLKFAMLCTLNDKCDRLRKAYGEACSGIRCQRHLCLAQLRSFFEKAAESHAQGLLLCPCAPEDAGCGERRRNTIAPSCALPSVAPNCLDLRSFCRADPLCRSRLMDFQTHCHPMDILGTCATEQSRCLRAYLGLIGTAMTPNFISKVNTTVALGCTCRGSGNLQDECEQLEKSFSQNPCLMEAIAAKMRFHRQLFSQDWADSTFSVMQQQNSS

[5] = target: T4, murine GFRalpha3 (murine, UniProt O35118 29-371); experiment: Neublastin competition binding on NB41A3-L3 cells (murine GFRalpha3 plus endogenous murine Ret): 0-10 uM rat Neublastin for 10 min at 4 C, unoccupied GFRalpha3 probed with 10 ug/ml biotinylated MOR02683, FACS with PE-Streptavidin, hyperbolic fit
T4 construct: also called murine GFRalpha3 on NB41A3-L3 cells
T4 sequence: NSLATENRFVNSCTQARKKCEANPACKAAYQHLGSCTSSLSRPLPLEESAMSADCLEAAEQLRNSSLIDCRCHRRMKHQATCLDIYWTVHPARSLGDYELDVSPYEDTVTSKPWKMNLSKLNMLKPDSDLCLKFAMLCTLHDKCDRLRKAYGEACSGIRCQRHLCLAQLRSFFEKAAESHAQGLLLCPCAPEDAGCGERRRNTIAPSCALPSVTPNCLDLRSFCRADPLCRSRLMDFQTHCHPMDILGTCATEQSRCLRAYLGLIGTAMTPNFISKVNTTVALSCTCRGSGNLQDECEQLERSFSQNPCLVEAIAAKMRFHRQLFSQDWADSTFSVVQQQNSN
Method: NB41A3-L3 cells were incubated with different concentrations of rat Neublastin for 10 minutes at 4° C. During the incubation period, the binding reaction of Neublastin to GFRalpha3 and Ret on the cell surface reaches equilibrium. Cells were then quenched with a high concentration (10 ug/ml) of biotinylated MOR02683 for 2 minutes. MOR02683 can only bind to GFRalpha3 receptors that are not already occupied by Neublastin and thus acts as a probe for unoccupied GFRalpha3 receptors. During the short incubation time of the quenching reaction, no re-equilibration between Neublastin and MOR02683 binding occurs. The amount of MOR02683 bound to GFRalpha3 was then quantified via FACS analysis using PE-Streptavidin as a secondary reagent.
Neublastin competition binding was used to measure Neublastin binding affinities to receptors on the cell surface. NB41A3-L3 cells were incubated with 0-10 uM rat Neublastin for 10 minutes at 4° C. Cells were then quenched with 10 ug/ml biotinylated MOR02683 for 2 minutes. The amount of MOR02683 bound to GFRalpha3 was quantified by FACS using PE-Streptavidin as a secondary reagent. […] A Neublastin concentration-dependent reduction in the subsequent binding of MOR02683 was observed, but not with the control antibody MOR02682 (FIG. 8).

B1: Fab fragment MOR02683 (Fab, V domains shown)
VH: QVQLVESGGGLVQPGGSLRLSCAASGFTFSNYTMHWVRQAPGKGLEWVSVISYDGSSTYYADSVKGRFTISRDNSKNTLYLQMNSLRAEDTAVYYCARIVRMDIWGQGTLVTVSS
VL: DIVLTQSPATLSLSPGERATLSCRASQSVNSHYLAWYQQKPGQAPRLLIYGASNRATGVPARFSGSGSGTDFTLTISSLEPEDFATYYCQQMDGFPFTFGQGTKVEIKR
notes: From the HuCAL GOLD Fab phage display library; also called anti-GFRalpha3 Fab fragment MOR02683
binding result [1]: no binding (tested: 10 ug/ml)
binding result [2]: no binding (tested: 10 ug/ml)
EC50 [3]: ~0.25 µg/mL
binding result [4]: binds

B2: rat Neublastin (113 amino acid form) (ligand)
chain: AGTRSSRARATDARGCRLRSQLVPVSALGLGHSSDELIRFRFCSGSCRRARSPHDLSLASLLDAGALRSPPGSRPISQPCCRPTRYEAVSFMDVNSTWRTVDHLSATACGCLG
Kd [5]: ~200 nM
